Assay results as given in publication PMC11749100, “Blockade of Arf1-mediated lipid metabolism in cancers promotes tumor infiltration of cytotoxic T cells via the LPE-PPARγ-NF-κB-CCL5 pathway”.

Experiments:
p65 (NF-kB) = p65 (NF-kB) (UniProt Q04207 1-549); assay: EMSA; Beyotime GS009 EMSA kit; 1 uL protein + 2 uL DNA, 20 min at room temperature; 4% non-denaturing PAGE; buffer, salt and pH not stated; conditions: protein: recombinant; tags: His (pET-21b(+)); blunt
PPARγ = PPARγ (mouse, UniProt P37238 1-505); assay: as above; conditions: protein: recombinant; blunt

p65 (NF-kB), sequence (Q04207 whole entry): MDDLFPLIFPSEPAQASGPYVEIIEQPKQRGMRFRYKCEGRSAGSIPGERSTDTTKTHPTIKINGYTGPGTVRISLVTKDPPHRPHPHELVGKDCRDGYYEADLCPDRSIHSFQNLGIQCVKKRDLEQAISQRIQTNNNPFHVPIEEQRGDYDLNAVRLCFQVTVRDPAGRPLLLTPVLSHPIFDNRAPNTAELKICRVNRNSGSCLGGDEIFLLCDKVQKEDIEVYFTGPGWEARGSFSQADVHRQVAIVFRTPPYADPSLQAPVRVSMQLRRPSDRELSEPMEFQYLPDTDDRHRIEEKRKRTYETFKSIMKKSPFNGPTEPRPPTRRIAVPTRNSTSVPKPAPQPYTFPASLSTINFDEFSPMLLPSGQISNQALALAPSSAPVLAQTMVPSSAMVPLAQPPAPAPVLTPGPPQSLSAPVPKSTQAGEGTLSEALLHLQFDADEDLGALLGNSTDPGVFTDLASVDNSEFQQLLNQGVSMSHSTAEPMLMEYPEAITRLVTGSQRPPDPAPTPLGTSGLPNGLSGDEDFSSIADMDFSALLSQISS

B1: CCL5 promoter probe (dsDNA)
DNA 1: GTCTTTTGTGGAAACTCCCCAAG
DNA 2: CTTGGGGAGTTTCCACAAAAGAC
- binding result (p65 (NF-kB)): binds
- binding result (PPARγ): no binding
